Assay results: the supplement of paper PMC9112550, “Optimization of the antimicrobial peptide Bac7 by deep mutational scanning” (BMC Biology, 2022)

test system: Escherichia coli TOP10; assay: shrunken log2 fold change of peptide-encoding DNA abundance (4.5 h post-induction vs induction); higher = less antimicrobial activity (less host growth inhibition); conditions: time post-induction: 4.5 h; library: site-saturation at positions 5, 18, 19, 20
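Further: peptides expressed intracellularly from a pBAD plasmid library in pooled LB shake-flask culture, induced with 0.3% L-arabinose, DNA abundance read by NGS, three biological replicates, DESeq2 with apeglm shrinkage.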

Row | Sequence | shrunken log2 fold change
1 | RRIRGRPPRLPRPRPRPCDVPRP | -0.014
2 | RRIRGRPPRLPRPRPRPCERPRP | 0.013
3 | RRIRGRPPRLPRPRPRPCFKPRP | 0.00363
4 | RRIRGRPPRLPRPRPRPCFYPRP | 0.156
5 | RRIRGRPPRLPRPRPRPCITPRP | 0.158
6 | RRIRGRPPRLPRPRPRPCKPPRP | 0.108
7 | RRIRGRPPRLPRPRPRPCKSPRP | -0.00288
8 | RRIRGRPPRLPRPRPRPCLDPRP | -0.0991
9 | RRIRGRPPRLPRPRPRPCLTPRP | 0.496
10 | RRIRGRPPRLPRPRPRPCLVPRP | 0.761
11 | RRIRGRPPRLPRPRPRPCMGPRP | 0.289
12 | RRIRGRPPRLPRPRPRPCNEPRP | 0.0278
13 | RRIRGRPPRLPRPRPRPCNMPRP | -0.0796
14 | RRIRGRPPRLPRPRPRPCPRPRP | 0.23
15 | RRIRGRPPRLPRPRPRPCRLPRP | 0.123
16 | RRIRGRPPRLPRPRPRPCSQPRP | 0.19
17 | RRIRGRPPRLPRPRPRPCSVPRP | 0.394
18 | RRIRGRPPRLPRPRPRPCTAPRP | 0.875
19 | RRIRGRPPRLPRPRPRPCTCPRP | 0.111
20 | RRIRGRPPRLPRPRPRPCVWPRP | 0.921
21 | RRIRGRPPRLPRPRPRPCYAPRP | 0.128
22 | RRIRGRPPRLPRPRPRPCYMPRP | -0.328
23 | RRIRGRPPRLPRPRPRPDCEPRP | 1.44
24 | RRIRGRPPRLPRPRPRPDDFPRP | 0.0116
25 | RRIRGRPPRLPRPRPRPDGEPRP | 0.259

Row | Sequence | shrunken log2 fold change
26 | RRIRGRPPRLPRPRPRPDHGPRP | -0.0602
27 | RRIRGRPPRLPRPRPRPDHPPRP | -0.0241
28 | RRIRGRPPRLPRPRPRPDICPRP | 0.2
29 | RRIRGRPPRLPRPRPRPDILPRP | 0.785
30 | RRIRGRPPRLPRPRPRPDKKPRP | 0.878
31 | RRIRGRPPRLPRPRPRPDKLPRP | -0.0186
32 | RRIRGRPPRLPRPRPRPDLDPRP | 1.21
33 | RRIRGRPPRLPRPRPRPDNNPRP | 0.388
34 | RRIRGRPPRLPRPRPRPDNQPRP | 0.168
35 | RRIRGRPPRLPRPRPRPDQQPRP | 0.074
36 | RRIRGRPPRLPRPRPRPDSYPRP | 0.0941
37 | RRIRGRPPRLPRPRPRPDTGPRP | -0.0756
38 | RRIRGRPPRLPRPRPRPDTIPRP | 0.0799
39 | RRIRGRPPRLPRPRPRPDTPPRP | 0.799
40 | RRIRGRPPRLPRPRPRPDTSPRP | 0.383
41 | RRIRGRPPRLPRPRPRPDVAPRP | 1.98
42 | RRIRGRPPRLPRPRPRPDVYPRP | -0.0497
43 | RRIRGRPPRLPRPRPRPDYTPRP | 0.343
44 | RRIRGRPPRLPRPRPRPDYVPRP | 0.66
45 | RRIRGRPPRLPRPRPRPECEPRP | 1.88
46 | RRIRGRPPRLPRPRPRPEDEPRP | 0.0631
47 | RRIRGRPPRLPRPRPRPEDLPRP | 0.582
48 | RRIRGRPPRLPRPRPRPEEIPRP | 0.842
49 | RRIRGRPPRLPRPRPRPEGNPRP | 0.0816
50 | RRIRGRPPRLPRPRPRPEGQPRP | 1.13

Row | Sequence | shrunken log2 fold change
51 | RRIRGRPPRLPRPRPRPENAPRP | 1.03
52 | RRIRGRPPRLPRPRPRPENCPRP | 0.111
53 | RRIRGRPPRLPRPRPRPENEPRP | 0.686
54 | RRIRGRPPRLPRPRPRPENWPRP | 0.594
55 | RRIRGRPPRLPRPRPRPEPNPRP | 1.42
56 | RRIRGRPPRLPRPRPRPEQHPRP | 0.66
57 | RRIRGRPPRLPRPRPRPEQVPRP | 0.995
58 | RRIRGRPPRLPRPRPRPERCPRP | 0.203
59 | RRIRGRPPRLPRPRPRPERSPRP | 1.36
60 | RRIRGRPPRLPRPRPRPETIPRP | 0.224
61 | RRIRGRPPRLPRPRPRPETLPRP | 1.37
62 | RRIRGRPPRLPRPRPRPETSPRP | 1.68
63 | RRIRGRPPRLPRPRPRPEVYPRP | 0.346
64 | RRIRGRPPRLPRPRPRPEWCPRP | 1.19
65 | RRIRGRPPRLPRPRPRPEWVPRP | 0.875
66 | RRIRGRPPRLPRPRPRPEWWPRP | 0.77
67 | RRIRGRPPRLPRPRPRPEYKPRP | 0.375
68 | RRIRGRPPRLPRPRPRPEYRPRP | 0.354
69 | RRIRGRPPRLPRPRPRPFAIPRP | -0.0466
70 | RRIRGRPPRLPRPRPRPFCIPRP | 0.494
71 | RRIRGRPPRLPRPRPRPFCPPRP | -0.0253
72 | RRIRGRPPRLPRPRPRPFEKPRP | 0.22
73 | RRIRGRPPRLPRPRPRPFGAPRP | 0.793
74 | RRIRGRPPRLPRPRPRPFGGPRP | 0.401
75 | RRIRGRPPRLPRPRPRPFGSPRP | 0.081

Row | Sequence | shrunken log2 fold change
76 | RRIRGRPPRLPRPRPRPFHMPRP | -0.0599
77 | RRIRGRPPRLPRPRPRPFKDPRP | -0.681
78 | RRIRGRPPRLPRPRPRPFMCPRP | 0.224
79 | RRIRGRPPRLPRPRPRPFMIPRP | -0.0383
80 | RRIRGRPPRLPRPRPRPFMQPRP | 0.165
81 | RRIRGRPPRLPRPRPRPFNDPRP | -0.753
82 | RRIRGRPPRLPRPRPRPFPGPRP | 0.0889
83 | RRIRGRPPRLPRPRPRPFQIPRP | -0.0147
84 | RRIRGRPPRLPRPRPRPFQMPRP | 0.0308
85 | RRIRGRPPRLPRPRPRPFSMPRP | 0.169
86 | RRIRGRPPRLPRPRPRPFTTPRP | 0.0423
87 | RRIRGRPPRLPRPRPRPFVDPRP | 0.571
88 | RRIRGRPPRLPRPRPRPFVKPRP | -0.419
89 | RRIRGRPPRLPRPRPRPFYFPRP | 0.219
90 | RRIRGRPPRLPRPRPRPGAIPRP | 1.44
91 | RRIRGRPPRLPRPRPRPGFFPRP | 0.542
92 | RRIRGRPPRLPRPRPRPGGLPRP | 0.842
93 | RRIRGRPPRLPRPRPRPGHSPRP | -0.0314
94 | RRIRGRPPRLPRPRPRPGKCPRP | -0.0229
95 | RRIRGRPPRLPRPRPRPGLMPRP | 0.799
96 | RRIRGRPPRLPRPRPRPGMMPRP | -0.0297
97 | RRIRGRPPRLPRPRPRPGMVPRP | 1.46
98 | RRIRGRPPRLPRPRPRPGNEPRP | 0.0696
99 | RRIRGRPPRLPRPRPRPGQDPRP | 0.605
100 | RRIRGRPPRLPRPRPRPGQNPRP | 0.0139

Row | Sequence | shrunken log2 fold change
101 | RRIRGRPPRLPRPRPRPGREPRP | 0.217
102 | RRIRGRPPRLPRPRPRPGRYPRP | -0.378
103 | RRIRGRPPRLPRPRPRPGSNPRP | 0.0237
104 | RRIRGRPPRLPRPRPRPGTIPRP | 0.00615
105 | RRIRGRPPRLPRPRPRPGTNPRP | 0.133
106 | RRIRGRPPRLPRPRPRPGTRPRP | 0.703
107 | RRIRGRPPRLPRPRPRPGVWPRP | 1.22
108 | RRIRGRPPRLPRPRPRPGWHPRP | 0.277
109 | RRIRGRPPRLPRPRPRPGYFPRP | 3.3
110 | RRIRGRPPRLPRPRPRPGYNPRP | 0.0217
111 | RRIRGRPPRLPRPRPRPHCIPRP | -0.0261
112 | RRIRGRPPRLPRPRPRPHEEPRP | 0.383
113 | RRIRGRPPRLPRPRPRPHGCPRP | 0.585
114 | RRIRGRPPRLPRPRPRPHGDPRP | 1.11
115 | RRIRGRPPRLPRPRPRPHIYPRP | 0.0231
116 | RRIRGRPPRLPRPRPRPHKMPRP | 0.0936
117 | RRIRGRPPRLPRPRPRPHLQPRP | 0.479
118 | RRIRGRPPRLPRPRPRPHMAPRP | 0.271
119 | RRIRGRPPRLPRPRPRPHMLPRP | 0.142
120 | RRIRGRPPRLPRPRPRPHNRPRP | 0.0391
121 | RRIRGRPPRLPRPRPRPHRLPRP | 0.14
122 | RRIRGRPPRLPRPRPRPHTKPRP | 0.104
123 | RRIRGRPPRLPRPRPRPHTLPRP | -0.22
124 | RRIRGRPPRLPRPRPRPHTPPRP | 0.339
125 | RRIRGRPPRLPRPRPRPHVAPRP | 0.724

Row | Sequence | shrunken log2 fold change
126 | RRIRGRPPRLPRPRPRPHVQPRP | 0.262
127 | RRIRGRPPRLPRPRPRPHVWPRP | 0.201
128 | RRIRGRPPRLPRPRPRPHYWPRP | 0.12
129 | RRIRGRPPRLPRPRPRPIAQPRP | 0.838
130 | RRIRGRPPRLPRPRPRPIFNPRP | 0.051
131 | RRIRGRPPRLPRPRPRPIGGPRP | 0.0174
132 | RRIRGRPPRLPRPRPRPIGHPRP | 0.39
133 | RRIRGRPPRLPRPRPRPIKTPRP | 0.143
134 | RRIRGRPPRLPRPRPRPILGPRP | -0.0749
135 | RRIRGRPPRLPRPRPRPILPPRP | 0.0676
136 | RRIRGRPPRLPRPRPRPINTPRP | -0.4
137 | RRIRGRPPRLPRPRPRPIPAPRP | 0.913
138 | RRIRGRPPRLPRPRPRPIPDPRP | 0.238
139 | RRIRGRPPRLPRPRPRPIQNPRP | 0.0261
140 | RRIRGRPPRLPRPRPRPISSPRP | 0.393
141 | RRIRGRPPRLPRPRPRPIWMPRP | 0.245
142 | RRIRGRPPRLPRPRPRPIWPPRP | 0.23
143 | RRIRGRPPRLPRPRPRPIYWPRP | 0.247
144 | RRIRGRPPRLPRPRPRPKAKPRP | 0.017
145 | RRIRGRPPRLPRPRPRPKDCPRP | 0.427
146 | RRIRGRPPRLPRPRPRPKDYPRP | -0.00224
147 | RRIRGRPPRLPRPRPRPKEIPRP | 0.57
148 | RRIRGRPPRLPRPRPRPKESPRP | 0.981
149 | RRIRGRPPRLPRPRPRPKHQPRP | 0.441
150 | RRIRGRPPRLPRPRPRPKHVPRP | 0.0824
